Source: patent publication US20240189392A1 (AMBRX, published 2024)
Where “and” joins values, the source holds several entries; their conditions need not be identical. Equal entries are not always repeated. Positions of bridges follow the written chain, without caps; N, C: chain ends. Non-standard residues stand in square brackets, D forms with d. Chains are numbered I, II in the order given. No end group written: not given here. PEG20K = 20 kDa polyethylene glycol, linked to pAF (e.g. via oxime linkage); Phe(4-Ac) = CC(=O)c1ccc(C[C@H](N)C(=O)O)cc1

B1: wild-type relaxin (human relaxin 2) (ligand)
chain 1: QLYSALANKCCHVGCTKRSLARFC
chain 2: DSWMEEVIKLCGRELVRAQIAICGMSTWS
modifications: disulfide I:10-I:15, I:11-II:11, I:24-II:23
B2: RLX-A-AR18-20KPEG (ligand)
chain 1: QLYSALANKCCHVGCTKXSLARFC
chain 2: ASWMEEVIKLCGRELVRAQIAICGMSTWS
modifications: not fully specified; para-acetylphenylalanine (pAF) at position 18 of the A chain, 20K PEGylated
B3: RLX-A-BV7-20KPEG (ligand)
chain 1: QLYSALANKCCHVGCTKRSLARFC
chain 2: ASWMEE[Phe(4-Ac)](PEG20K)IKLCGRELVRAQIAICGMSTWS
modifications: not fully specified (bridges); ends and bridges not checked
B4: RLX-A-BA18-20KPEG (ligand)
chain 1: QLYSALANKCCHVGCTKRSLARFC
chain 2: ASWMEEVIKLCGRELVR[Phe(4-Ac)](PEG20K)QIAICGMSTWS
modifications: not fully specified (bridges); ends and bridges not checked
B5: RLX-A-BW28-20KPEG (ligand)
chain 1: QLYSALANKCCHVGCTKRSLARFC
chain 2: ASWMEEVIKLCGRELVRAQIAICGMST[Phe(4-Ac)](PEG20K)S
modifications: not fully specified (bridges); ends and bridges not checked
B6: RLX-A-BE5-20KPEG (ligand)
chain 1: QLYSALANKCCHVGCTKRSLARFC
chain 2: ASWM[Phe(4-Ac)](PEG20K)EVIKLCGRELVRAQIAICGMSTWS
modifications: not fully specified (bridges); ends and bridges not checked
B7: RLX-D-BE5-20KPEG (ligand)
chain 1: QLYSALANKCCHVGCTKRSLARFC
chain 2: DSWM[Phe(4-Ac)](PEG20K)EVIKLCGRELVRAQIAICGMSTWS
modifications: not fully specified (bridges); ends and bridges not checked
B8: RLX-D-AL2-20KPEG (ligand)
chain 1: QXYSALANKCCHVGCTKRSLARFC
chain 2: DSWMEEVIKLCGRELVRAQIAICGMSTWS
modifications: not fully specified; para-acetylphenylalanine (pAF) at position 2 of the A chain, 20K PEGylated
B9: RLX-A-AV13-20KPEG (ligand)
chain 1: QLYSALANKCCHXGCTKRSLARFC
chain 2: ASWMEEVIKLCGRELVRAQIAICGMSTWS
modifications: not fully specified; para-acetylphenylalanine (pAF) at position 13 of the A chain, 20K PEGylated
B10: RLX-A-AA5-20KPEG (ligand)
chain 1: QLYSXLANKCCHVGCTKRSLARFC
chain 2: ASWMEEVIKLCGRELVRAQIAICGMSTWS
modifications: not fully specified; para-acetylphenylalanine (pAF) at position 5 of the A chain, 20K PEGylated
B11: RLX-A-WT (human relaxin 2 with alanine at the first position of the B chain) (ligand)
chain 1: QLYSALANKCCHVGCTKRSLARFC
chain 2: ASWMEEVIKLCGRELVRAQIAICGMSTWS
modifications: not fully specified (bridges); ends and bridges not checked

Legend:
Assay in all cases: cell-based or functional assay
human RXFP4 = human RXFP4 (human, UniProt Q8TDU9 1-374)
Chain of human RXFP4 (Q8TDU9 whole entry): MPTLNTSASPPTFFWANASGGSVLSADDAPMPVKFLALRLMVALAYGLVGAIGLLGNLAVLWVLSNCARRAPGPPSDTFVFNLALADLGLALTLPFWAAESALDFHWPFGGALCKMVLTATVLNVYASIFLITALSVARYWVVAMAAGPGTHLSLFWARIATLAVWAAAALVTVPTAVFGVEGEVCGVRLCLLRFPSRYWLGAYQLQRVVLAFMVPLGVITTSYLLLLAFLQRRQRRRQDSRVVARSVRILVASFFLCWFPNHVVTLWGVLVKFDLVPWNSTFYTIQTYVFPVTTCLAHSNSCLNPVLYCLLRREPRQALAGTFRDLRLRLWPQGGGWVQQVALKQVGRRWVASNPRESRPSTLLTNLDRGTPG

human RXFP1 [1] = biological target: T1, human RXFP1 (human, UniProt Q9HBX9 1-757)
T1 sequence (looked up): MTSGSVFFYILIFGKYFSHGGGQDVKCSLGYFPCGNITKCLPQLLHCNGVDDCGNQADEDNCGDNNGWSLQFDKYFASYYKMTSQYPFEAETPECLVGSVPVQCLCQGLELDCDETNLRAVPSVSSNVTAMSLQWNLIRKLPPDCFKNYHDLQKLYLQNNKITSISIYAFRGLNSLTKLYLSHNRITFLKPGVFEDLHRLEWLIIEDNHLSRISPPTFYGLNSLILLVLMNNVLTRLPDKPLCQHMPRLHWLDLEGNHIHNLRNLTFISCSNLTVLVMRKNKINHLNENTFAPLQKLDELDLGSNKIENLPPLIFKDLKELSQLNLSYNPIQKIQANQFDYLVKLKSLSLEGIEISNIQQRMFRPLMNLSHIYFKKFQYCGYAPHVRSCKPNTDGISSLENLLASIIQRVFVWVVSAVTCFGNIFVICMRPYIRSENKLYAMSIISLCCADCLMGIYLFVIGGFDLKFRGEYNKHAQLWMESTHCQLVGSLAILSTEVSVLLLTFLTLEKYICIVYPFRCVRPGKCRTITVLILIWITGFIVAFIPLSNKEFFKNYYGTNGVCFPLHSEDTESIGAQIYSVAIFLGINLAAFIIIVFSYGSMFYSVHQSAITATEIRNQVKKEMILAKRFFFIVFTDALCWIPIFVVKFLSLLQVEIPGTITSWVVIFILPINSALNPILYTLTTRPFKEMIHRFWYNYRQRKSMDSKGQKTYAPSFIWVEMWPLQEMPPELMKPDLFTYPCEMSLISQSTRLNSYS

rat RXFP1 = biological target: T2, rat RXFP1 (rat, UniProt Q6R6I6 1-758)
T2 sequence (looked up): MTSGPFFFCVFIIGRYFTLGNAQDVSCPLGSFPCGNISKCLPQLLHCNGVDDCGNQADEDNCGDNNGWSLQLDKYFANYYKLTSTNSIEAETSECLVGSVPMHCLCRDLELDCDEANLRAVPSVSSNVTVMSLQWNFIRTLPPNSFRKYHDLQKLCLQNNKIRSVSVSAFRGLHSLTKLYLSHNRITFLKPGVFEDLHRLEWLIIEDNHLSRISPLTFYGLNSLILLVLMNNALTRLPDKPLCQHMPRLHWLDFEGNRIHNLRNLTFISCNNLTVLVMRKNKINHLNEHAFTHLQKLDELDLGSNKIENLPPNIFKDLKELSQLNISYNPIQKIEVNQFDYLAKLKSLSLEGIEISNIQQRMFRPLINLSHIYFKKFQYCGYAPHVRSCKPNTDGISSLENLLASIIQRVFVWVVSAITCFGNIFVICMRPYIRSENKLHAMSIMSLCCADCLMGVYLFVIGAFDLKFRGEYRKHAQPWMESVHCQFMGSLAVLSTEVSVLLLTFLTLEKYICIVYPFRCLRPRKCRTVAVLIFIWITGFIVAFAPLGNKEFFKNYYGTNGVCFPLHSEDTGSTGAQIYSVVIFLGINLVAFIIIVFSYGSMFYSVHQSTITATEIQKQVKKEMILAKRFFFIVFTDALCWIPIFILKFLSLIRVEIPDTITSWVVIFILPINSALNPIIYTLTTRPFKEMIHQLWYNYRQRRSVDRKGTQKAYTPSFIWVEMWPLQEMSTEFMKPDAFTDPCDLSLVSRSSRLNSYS

mouse RXFP1 = biological target: T3, mouse RXFP1 (mouse, UniProt Q6R6I7 1-758)
T3 sequence (looked up): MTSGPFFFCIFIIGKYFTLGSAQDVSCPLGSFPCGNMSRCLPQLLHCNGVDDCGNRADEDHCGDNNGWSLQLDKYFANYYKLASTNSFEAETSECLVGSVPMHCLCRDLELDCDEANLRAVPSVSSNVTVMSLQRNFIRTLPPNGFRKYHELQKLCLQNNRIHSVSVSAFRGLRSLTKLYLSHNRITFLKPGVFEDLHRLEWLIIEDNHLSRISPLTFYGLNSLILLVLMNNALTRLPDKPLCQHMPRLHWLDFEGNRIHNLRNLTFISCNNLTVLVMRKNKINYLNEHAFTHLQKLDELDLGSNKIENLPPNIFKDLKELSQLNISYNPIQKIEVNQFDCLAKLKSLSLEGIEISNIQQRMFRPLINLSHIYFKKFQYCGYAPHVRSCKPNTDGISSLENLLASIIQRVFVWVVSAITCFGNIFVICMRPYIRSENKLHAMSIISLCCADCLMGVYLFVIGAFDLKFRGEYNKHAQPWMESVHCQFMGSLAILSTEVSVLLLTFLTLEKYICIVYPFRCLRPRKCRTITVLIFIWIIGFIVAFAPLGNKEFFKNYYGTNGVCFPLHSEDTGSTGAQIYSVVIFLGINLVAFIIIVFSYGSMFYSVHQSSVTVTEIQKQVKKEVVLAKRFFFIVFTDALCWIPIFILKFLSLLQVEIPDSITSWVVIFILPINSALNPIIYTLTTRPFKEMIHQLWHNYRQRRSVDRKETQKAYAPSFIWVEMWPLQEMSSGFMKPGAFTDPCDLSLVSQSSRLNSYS

cynomolgus monkey RXFP1 = biological target: T4, cynomolgus monkey RXFP1 (cynomolgus monkey, UniProt H9ERA2 1-757 (rhesus entry))
T4 sequence: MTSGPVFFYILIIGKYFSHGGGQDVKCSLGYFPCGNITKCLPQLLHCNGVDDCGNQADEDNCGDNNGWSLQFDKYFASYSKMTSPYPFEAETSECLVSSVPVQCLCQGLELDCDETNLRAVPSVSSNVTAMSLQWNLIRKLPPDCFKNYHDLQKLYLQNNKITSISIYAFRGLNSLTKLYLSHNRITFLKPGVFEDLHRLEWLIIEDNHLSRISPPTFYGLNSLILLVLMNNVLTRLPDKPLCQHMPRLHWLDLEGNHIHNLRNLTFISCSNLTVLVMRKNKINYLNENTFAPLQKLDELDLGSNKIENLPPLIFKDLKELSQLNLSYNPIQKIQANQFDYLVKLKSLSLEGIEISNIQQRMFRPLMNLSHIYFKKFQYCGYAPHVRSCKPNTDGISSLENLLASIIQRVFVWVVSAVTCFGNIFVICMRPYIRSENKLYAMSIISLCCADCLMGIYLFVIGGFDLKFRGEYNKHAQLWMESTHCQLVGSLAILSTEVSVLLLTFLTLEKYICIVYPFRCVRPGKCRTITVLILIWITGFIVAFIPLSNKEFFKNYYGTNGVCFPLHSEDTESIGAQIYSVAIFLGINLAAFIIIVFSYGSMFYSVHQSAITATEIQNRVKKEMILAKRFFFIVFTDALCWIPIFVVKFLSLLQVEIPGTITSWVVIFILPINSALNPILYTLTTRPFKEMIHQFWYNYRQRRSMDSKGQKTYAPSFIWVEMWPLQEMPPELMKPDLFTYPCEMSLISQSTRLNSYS

dog RXFP1 = dog RXFP1 (dog)
human RXFP3 = biological target: T5, human RXFP3 (human, UniProt Q9NSD7 1-469)
T5 sequence (looked up): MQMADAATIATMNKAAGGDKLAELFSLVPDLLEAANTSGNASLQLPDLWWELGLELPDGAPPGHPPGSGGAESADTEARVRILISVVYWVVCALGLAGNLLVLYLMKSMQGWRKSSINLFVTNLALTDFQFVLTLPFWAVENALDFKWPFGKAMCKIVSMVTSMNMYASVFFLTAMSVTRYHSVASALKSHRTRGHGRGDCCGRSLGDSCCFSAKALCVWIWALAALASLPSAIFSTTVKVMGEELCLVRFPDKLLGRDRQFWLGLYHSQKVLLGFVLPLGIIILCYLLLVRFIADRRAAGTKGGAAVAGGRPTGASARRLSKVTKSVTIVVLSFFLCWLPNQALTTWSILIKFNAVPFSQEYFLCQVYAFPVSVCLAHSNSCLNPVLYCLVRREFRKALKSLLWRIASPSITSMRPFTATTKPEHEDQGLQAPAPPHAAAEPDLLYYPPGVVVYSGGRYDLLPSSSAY

human RXFP1 [2] = biological target: T1, human RXFP1; remark: listed apart in the source
human RXFP1 [3] = biological target: T1, human RXFP1; remark: listed apart in the source

| Functional Assay Raw EC50 Values [ng/mL]; cAMP increase in THP-1 cells, 11/4/2010 (human RXFP1 [2]) [ng/mL] | Functional Assay Raw EC50 Values [ng/mL]; cAMP increase in THP-1 cells, 11/5/2010 (human RXFP1 [2]) | In vitro Activity Fold Loss (human RXFP1 [3]) [fold] | other results | Binder |
| --- | --- | --- | --- | --- |
| 1.5 | 1.5 ng/mL and 1 ng/mL | – | cAMP Assay EC50 (nM), inhibition of forskolin-induced cAMP, human RXFP4/CHO-K1 cells (human RXFP4): > 3000 nM; cAMP Assay EC50 (nM), THP-1 cells (human RXFP1 [1]): 0.3 nM; cAMP Assay EC50 (nM), hRXFP1/CHO-K1 cells (human RXFP1 [1]): 0.1 nM; cAMP Assay EC50 (nM), rat RXFP1/CHO-K1 cells (rat RXFP1): 0.03 nM; cAMP Assay EC50 (nM), mouse RXFP1/CHO-K1 cells (mouse RXFP1): 0.1 nM; cAMP Assay EC50 (nM), cyno RXFP1/CHO-K1 cells (cynomolgus monkey RXFP1): 0.06 nM; cAMP Assay EC50 (nM), dog RXFP1/CHO-K1 cells (dog RXFP1): 0.56 nM; cAMP Assay EC50 (nM), inhibition of forskolin-induced cAMP, human RXFP3/CHO-K1 cells (human RXFP3): > 3000 nM | B1 |
| – | 68 ng/mL | 21 | – | B2 |
| 54 | – | 15 | – | B3 |
| 172 | – | 48 | – | B4 |
| 172 | – | 48 | – | B5 |
| – | 45 ng/mL | 17 | – | B6 |
| – | 58 ng/mL | 22 | – | B7 |
| – | 43 ng/mL | 17 | – | B8 |
| – | 56 ng/mL | 17 | – | B9 |
| – | 41 ng/mL | 12 | – | B10 |
| 3.6 | 3.3 ng/mL and 2.6 ng/mL | – | – | B11 |
